In assay [1] the target is Human Bcl-2 protein (isoform 2 construct), N-terminal 6xHis tagged recombinant protein (human). Description: SPR; competitive solution binding: protein (20 nM) pre-incubated with tested BH3 peptide for at least 30 min, injected over immobilised biotin-Bim BH3 peptide; response at 30 s of dissociation.
Assay [2] shares this target. Description: fluorescence polarisation; competition: Mcl-1 (20 nM) or Bcl-2 (40 nM) pre-incubated with FAM-Bid (2 nM and 2.5 nM), tested BH3 peptide added, 2-3 h; 100 mM potassium phosphate, pH 7.5, 100 ug/ml bovine gamma globulin, 0.02% sodium azide; Ki calculated from IC50.

B1: Bad BH3 peptide (residues 103-128) (peptide)
peptide: NLWAAQRYGRELRRMSDEFVDSFKKG
In the case of B1, in assay [1], the concentration for half-maximal inhibition (IC50) is 4.37 nM. The inhibitory constant (Ki) in assay [2] was 7.1 nM.

B2: Noxa BH3 peptide (residues 18-43) (peptide)
peptide: PAELEVECATQLRRFGDKLNFRQKLL
Regarding B2, the concentration for half-maximal inhibition (IC50) in assay [1] was greater than 30000 nM. Further, the Ki in assay [2] was greater than 10000 nM.

The values above are taken from article PMC3717276, “Optimization and validation of mitochondria-based functional assay as a useful tool to identify BH3-like molecules selectively targeting anti-apoptotic Bcl-2 proteins” (BMC Biotechnology, 2013).
